To fix the notation:
B1: 1150F1 human IgG4 (antibody, V domains shown)
VH: EVQLVQSGAEVKKPGSSVKVSCKASGGTFSTYGISWVRQAPGQGLEWIGGIIPIFDTGNSAQSFQDRVTITADESTSTAYMEVGSLRSDDTAVYYCASSSRIYDLNPSLTAYYDMDVWGHGTMVTVSS
VL: QAVLTQPSSVSTPPGQKVTISCSGSSSNIGNNYVSWYQQLPGTAPKLLIYDNNKRPSGIPDRFSGSKSGTSATLGITGLQTGDEADYYCGTWDSSLSAWVFGGGTKLTVL
B2: 1021E5 scFv (scFv, part only; not given: Linker and tags, V domains shown, not shown: another chain or arm of the molecule; small tags and cut ends)
VH: B1 VH with D66G, G84S, L105Y, N106A, P107G, S108G, L109D, T110H, A111Y, H120Q
VL: B1 VL
B3: 1134D9 scFv (scFv, V domains shown)
VH: B1 VH with D66G, T69A, G84S, H120Q
VL: B1 VL with S95G
notes: also called LOT1134D09
B4: 1131H2 scFv (scFv, V domains shown)
VH: B1 VH with S17T, D66G, G84S, H120Q
VL: B1 VL with S25T
notes: also called LOT1131H02
B5: 1132H9 scFv (scFv, V domains shown)
VH: B1 VH with D66G, G84S, H120Q
VL: B1 VL with N28D, S57T
notes: also called LOT1132H09
B6: 1147D2 scFv (scFv, V domains shown)
VH: B1 VH with K19R, V20I, I34V, D66G, G84S, H120Q
VL: B1 VL with I59V
notes: also called LOT1147D02
B7: 1160E3 scFv (scFv, V domains shown)
VH: B1 VH with V18A, D66G, G84S, H120Q
VL: B1 VL with S26N
notes: also called LOT1160E03
B8: 1150F1 scFv (scFv, V domains shown)
VH: B1 VH
VL: B1 VL
notes: also called LOT1150F01
B9: 1147G9 scFv (scFv, V domains shown)
VH: B1 VH with T31A, D56N, D66G, G84S, H120Q
VL: B1 VL with I20V
notes: also called LOT1147G09
B10: 1133C11 scFv (scFv, V domains shown)
VH: B1 VH with D66G, G84S, H120Q
VL: B1 VL
notes: also called LOT1133C11
B11: 1146D7 scFv (scFv, V domains shown)
VH: B1 VH with D66G, G84S, H120Q
VL: B1 VL with K17E, S27T
notes: also called LOT1146D07
B12: 1218H5 scFv (scFv, V domains shown)
VH: B1 VH with E10V, N59S, D66G, G84S, H120Q
VL: B1 VL with I29T, P41S
notes: also called LOT1218H05
B13: 1165D4 scFv (scFv, V domains shown)
VH: B1 VH with D66G, G84S, H120Q
VL: B1 VL with G30E
notes: also called LOT1165D04

Here are results for 13 molecules from US20080107658A1 (AstraZeneca / MedImmune, published 2008).

Residue numbers refer to the chain shown, from its start.

T2 sequence (P25427 122-241): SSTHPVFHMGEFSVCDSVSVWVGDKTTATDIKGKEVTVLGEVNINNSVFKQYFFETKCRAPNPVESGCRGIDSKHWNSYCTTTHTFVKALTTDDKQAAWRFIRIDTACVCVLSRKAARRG
T1 sequence (P01138 122-241): as the sequence (P25427 122-241) above, with T3S, V6I, M9R, T37M, A60D, E65D, T92M, D94G, A117V, G120A counted along it
mouse nerve growth factor, sequence (P01139 122-241): as the sequence (P25427 122-241) above, with G40A, K50R, P61S, D94E, A117T counted along it

One test addresses T1, human nerve growth factor (beta-NGF) (human, UniProt P01138 122-241). As to the kind of experiment: cell-based or functional assay.
For the molecule B1, the “IC50, FLIPR calcium mobilisation” value worked out at 0.32 nM and the “IC50, PC12 cell survival” value is 0.47 nM.

Another test has as its target T2, rat nerve growth factor (beta-NGF) (rat, UniProt P25427 122-241). As to the kind of experiment: cell-based or functional assay.
Turning to B1, the “IC50, FLIPR calcium mobilisation” value came out at 0.15 nM.

The next test has as its target mouse nerve growth factor (mouse, UniProt P01139 122-241). As to the kind of experiment: cell-based or functional assay.
Turning to B1, the “IC50, FLIPR calcium mobilisation” value amounted to 0.19 nM.

The target of another test is T2, rat nerve growth factor (beta-NGF). As to the kind of experiment: purified scFv, inhibition of rat NGF binding to TrkA fusion protein.
The molecule B2 had an IC50 of 269 nM.
On the same count and under the same terms, as for B3, the figure is 0.2 nM; as for B4, 0.09 nM; as for B5, 0.68 nM.
Still for that read-out and setting: the same measure for B6: 0.1 nM; for B7: 0.22 nM; for B8: 0.16 nM.
The same measure, in the same setting: the same measure for B9: 0.01 nM; for B10: 1.24 nM.
B11 came in with a half-inhibitory concentration (IC50) of 0.02 nM.
Same read-out and setting: as for B12, the figure is 0.03 nM; as for B13, 0.29 nM.

For another test, the target named is T1, human nerve growth factor (beta-NGF). As to the kind of experiment: purified scFv, inhibition of human NGF binding to TrkA fusion protein.
On to B2, for which the IC50 stood at 94 nM.
Same read-out and setting: the same measure for B3: 0.14 nM; for B4: < 0.01 nM.
Same read-out and setting: as for B5, the figure is 0.54 nM; as for B6, < 0.01 nM.
Same read-out and setting: the same measure for B7: 0.14 nM; for B8: 0.2 nM; for B9: 0.25 nM.
B10 came in with a half-maximal inhibitory concentration (IC50) of 1.93 nM.
The molecule B11 registered an IC50 of 0.23 nM.
On the same count and under the same terms, the same measure for B12: < 0.01 nM.
Still for that read-out and setting: as for B13, the figure is 0.11 nM.

As a reminder, the IC50 is the concentration that inhibits the measured activity by half. High values mean weaker potency, low ones greater potency.
